Patent publication CN118388640A (CHENZHOU NO 1 PEOPLES HOSPITAL, dated 2024)

Target: T1, SARS-CoV-2 Wuhan-Hu-1 S蛋白 (Sino Biological，货号:40589-V08B1) (SARS-CoV-2 Wuhan-Hu-1, UniProt P0DTC2 14-1213)
T1 construct: extracellular domain
Assay: ELISA, S protein coated at 2 μg/mL, antibody at 1 μg/mL

B1: 抗新型冠状病毒SARS-CoV-2的广谱抗体(VSM12-37) (antibody, V domains shown)
VH: EVQLVESGGGLVQPGGSLRLSCAVSGFTVSSNYMSWVRQAPGKGLEWVSLIYSGGSTYYADSVKGRFTVSRDRSKNTLYLQMNSLRAEDTALYYCARDNPRVGSNYWGQGTLVTVSS
VL: DIQMTQSPSSLSASVGDRVTITCQASQDINNYLNWYQQKPGKAPKLLIYDASNLEAGVPSRFSGSGSGTDFTFTISSLQPEDIATYYCQQCDNVPLTFGGGTKVEIKR
notes: also called VSM12-37抗体
Q: Does B1 bind?
A: binds
